To fix the notation:
B1: Speckle-type POZ protein (Homo sapiens), O43791 (parent)
chain: MSRVPSPPPPAEMSSGPVAESWCYTQIKVVKFSYMWTINNFSFCREEMGEVIKSSTFSSGANDKLKWCLRVNPKGLDEESKDYLSLYLLLVSCPKSEVRAKFKFSILNAKGEETKAMESQRAYRFVQGKDWGFKKFIRRDFLLDEANGLLPDDKLTLFCEVSVVQDSVNISGQNTMNMVKVPECRLADELGGLWENSRFTDCCLCVAGQEFQAHKAILAARSPVFSAMFEHEMEESKKNRVEINDVEPEVFKEMMCFIYTGKAPNLDKMADDLLAAADKYALERLKVMCEDALCSNLSVENAAEILILADLHSADQLKTQAVDFINYHASDVLETSGWKSMVVSHPHLVAEAYRSLASAQCPFLGPPRKRLKQS
partner: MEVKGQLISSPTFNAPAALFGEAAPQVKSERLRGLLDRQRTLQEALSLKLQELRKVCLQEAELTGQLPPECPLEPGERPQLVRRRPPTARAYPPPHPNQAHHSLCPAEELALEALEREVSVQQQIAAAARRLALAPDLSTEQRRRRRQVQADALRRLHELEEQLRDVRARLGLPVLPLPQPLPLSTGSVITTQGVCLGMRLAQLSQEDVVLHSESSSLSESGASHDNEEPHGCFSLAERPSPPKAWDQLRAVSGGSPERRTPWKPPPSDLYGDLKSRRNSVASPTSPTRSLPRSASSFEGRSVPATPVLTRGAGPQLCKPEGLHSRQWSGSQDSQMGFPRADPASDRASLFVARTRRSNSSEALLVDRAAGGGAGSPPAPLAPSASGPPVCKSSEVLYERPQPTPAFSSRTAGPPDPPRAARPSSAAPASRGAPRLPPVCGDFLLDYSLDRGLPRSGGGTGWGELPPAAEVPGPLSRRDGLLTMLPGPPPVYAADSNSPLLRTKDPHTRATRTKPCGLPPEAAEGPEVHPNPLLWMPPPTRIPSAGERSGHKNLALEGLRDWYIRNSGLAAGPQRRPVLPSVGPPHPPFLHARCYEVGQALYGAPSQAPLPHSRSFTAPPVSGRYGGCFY
B2: Speckle-type POZ protein (Homo sapiens), O43791 (parent)
chain: B1 chain
partner: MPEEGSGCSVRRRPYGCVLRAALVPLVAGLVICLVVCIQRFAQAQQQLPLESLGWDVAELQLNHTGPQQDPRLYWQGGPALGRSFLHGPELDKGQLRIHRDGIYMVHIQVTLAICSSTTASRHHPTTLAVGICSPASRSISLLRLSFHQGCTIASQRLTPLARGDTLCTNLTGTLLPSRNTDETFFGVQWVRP
B3: Speckle-type POZ protein (Homo sapiens), O43791 (parent)
chain: B1 chain
partner: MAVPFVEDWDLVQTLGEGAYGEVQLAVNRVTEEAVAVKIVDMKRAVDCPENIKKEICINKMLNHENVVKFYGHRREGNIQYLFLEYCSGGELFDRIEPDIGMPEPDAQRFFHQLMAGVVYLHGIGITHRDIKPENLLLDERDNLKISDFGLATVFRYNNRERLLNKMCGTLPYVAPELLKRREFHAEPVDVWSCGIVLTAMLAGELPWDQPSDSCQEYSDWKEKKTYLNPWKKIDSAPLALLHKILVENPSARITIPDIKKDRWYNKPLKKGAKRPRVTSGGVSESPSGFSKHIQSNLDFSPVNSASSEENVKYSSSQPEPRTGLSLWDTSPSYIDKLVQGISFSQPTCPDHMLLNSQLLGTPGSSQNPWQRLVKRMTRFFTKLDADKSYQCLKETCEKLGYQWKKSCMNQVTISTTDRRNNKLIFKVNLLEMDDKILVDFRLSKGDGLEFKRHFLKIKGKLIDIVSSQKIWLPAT

Variants of B1 are the subject of one assay. To be noted: with cc120_human CCDC120, Q96HB5.
For MSRVPSPPPPAEMSSGPVAESWCYTQIKVVKFSYMWTINNFSFCREEMGEVIKSSTFSSGANDKLKWCLRVNPKGLDEESKDYLSLYLLLVSCPKSEVRAKFKFSILNAKGEETKAMESQRAYRFVQGKDWGVKKFIRRDFLLDEANGLLPDDKLTLFCEVSVVQDSVNISGQNTMNMVKVPECRLADELGGLWENSRFTDCCLCVAGQEFQAHKAILAARSPVFSAMFEHEMEESKKNRVEINDVEPEVFKEMMCFIYTGKAPNLDKMADDLLAAADKYALERLKVMCEDALCSNLSVENAAEILILADLHSADQLKTQAVDFINYHASDVLETSGWKSMVVSHPHLVAEAYRSLASAQCPFLGPPRKRLKQS [F133V], the “effect of a mutation on the interaction” value is “with no effect”.

In a further assay the parent is B1. Conditions: with cc120_human CCDC120, Q96HB5. This is another data set of the same source.
Regarding MSRVPSPPPPAEMSSGPVAESWCYTQIKVVKFSYMWTINNFSFCREEMGEVIKSSTFSSGANDKLKWCLRVNPKGLDEESKDYLSLCLLLVSCPKSEVRAKFKFSILNAKGEETKAMESQRAYRFVQGKDWGFKKFIRRDFLLDEANGLLPDDKLTLFCEVSVVQDSVNISGQNTMNMVKVPECRLADELGGLWENSRFTDCCLCVAGQEFQAHKAILAARSPVFSAMFEHEMEESKKNRVEINDVEPEVFKEMMCFIYTGKAPNLDKMADDLLAAADKYALERLKVMCEDALCSNLSVENAAEILILADLHSADQLKTQAVDFINYHASDVLETSGWKSMVVSHPHLVAEAYRSLASAQCPFLGPPRKRLKQS [Y87C], the “effect of a mutation on the interaction” value is “with no effect”.

A further assay covers variants of B2. Conditions: with cd70_human CD70, P32970.
On to MSRVPSPPPPAEMSSGPVAESWCYTQIKVVKFSYMWTINNFSFCREEMGEVIKSSTFSSGANDKLKWCLRVNPKGLDEESKDYLSLYLLLVSCPKSEVRAKCKFSILNAKGEETKAMESQRAYRFVQGKDWGFKKFIRRDFLLDEANGLLPDDKLTLFCEVSVVQDSVNISGQNTMNMVKVPECRLADELGGLWENSRFTDCCLCVAGQEFQAHKAILAARSPVFSAMFEHEMEESKKNRVEINDVEPEVFKEMMCFIYTGKAPNLDKMADDLLAAADKYALERLKVMCEDALCSNLSVENAAEILILADLHSADQLKTQAVDFINYHASDVLETSGWKSMVVSHPHLVAEAYRSLASAQCPFLGPPRKRLKQS [F102C], for which the “effect of a mutation on the interaction” value is “with no effect”.

In a further assay the parent is B2. To be noted: with cd70_human CD70, P32970. The source holds these as a separate data set.
As to MSRVPSPPPPAEMSSGPVAESWCYTQIKVVKFSYMWTINNFSFCREEMGEVIKSSTFSSGANDKLKWCLRVNPKGLDEESKDYLSLCLLLVSCPKSEVRAKFKFSILNAKGEETKAMESQRAYRFVQGKDWGFKKFIRRDFLLDEANGLLPDDKLTLFCEVSVVQDSVNISGQNTMNMVKVPECRLADELGGLWENSRFTDCCLCVAGQEFQAHKAILAARSPVFSAMFEHEMEESKKNRVEINDVEPEVFKEMMCFIYTGKAPNLDKMADDLLAAADKYALERLKVMCEDALCSNLSVENAAEILILADLHSADQLKTQAVDFINYHASDVLETSGWKSMVVSHPHLVAEAYRSLASAQCPFLGPPRKRLKQS [Y87C], the “effect of a mutation on the interaction” value is given as “with no effect”.

Variants of B2 are the subject of the next assay. Conditions: with cd70_human CD70, P32970. The source holds these as a separate data set.
Regarding MSRVPSPPPPAEMSSGPVAESWCYTQIKVVKFSYMWTINNFSFCREEMGEVIKSSTFSSGANDKLKWCLRVNPKGLDEESKDYLSLYLLLVSCPKSEVRAKFKFSILNAKGEETKAMESQRAYRFVQGKDWGVKKFIRRDFLLDEANGLLPDDKLTLFCEVSVVQDSVNISGQNTMNMVKVPECRLADELGGLWENSRFTDCCLCVAGQEFQAHKAILAARSPVFSAMFEHEMEESKKNRVEINDVEPEVFKEMMCFIYTGKAPNLDKMADDLLAAADKYALERLKVMCEDALCSNLSVENAAEILILADLHSADQLKTQAVDFINYHASDVLETSGWKSMVVSHPHLVAEAYRSLASAQCPFLGPPRKRLKQS [F133V], the “effect of a mutation on the interaction” value is “with no effect”.

In the next assay the parent is B2. Conditions: with cd70_human CD70, P32970. This is another data set of the same source.
With MSRVPSPPPPAEMSSGPVAESWCYTQIKVVKFSYMWTINNFSFCREEMGEVIKSSTFSSGANDKLKWCLRVNPKGLDEESKDYLSLYLLLVSCPKSEVRAKFKFSILNAKGEETKAMESQRAYRFVQGKDWGLKKFIRRDFLLDEANGLLPDDKLTLFCEVSVVQDSVNISGQNTMNMVKVPECRLADELGGLWENSRFTDCCLCVAGQEFQAHKAILAARSPVFSAMFEHEMEESKKNRVEINDVEPEVFKEMMCFIYTGKAPNLDKMADDLLAAADKYALERLKVMCEDALCSNLSVENAAEILILADLHSADQLKTQAVDFINYHASDVLETSGWKSMVVSHPHLVAEAYRSLASAQCPFLGPPRKRLKQS [F133L], the “effect of a mutation on the interaction” value is reported as “with no effect”.

A further assay covers variants of B3. Conditions: with chk1_human CHEK1, O14757.
With MSRVPSPPPPAEMSSGPVAESWCYTQIKVVKFSYMWTINNFSFCREEMGEVIKSSTFSSGANDKLKWCLRVNPKGLDEESKDYLSLYLLLVSCPKSEVRAKFKFSILNAKGEETKAMESQRAYRFVQGKDWGLKKFIRRDFLLDEANGLLPDDKLTLFCEVSVVQDSVNISGQNTMNMVKVPECRLADELGGLWENSRFTDCCLCVAGQEFQAHKAILAARSPVFSAMFEHEMEESKKNRVEINDVEPEVFKEMMCFIYTGKAPNLDKMADDLLAAADKYALERLKVMCEDALCSNLSVENAAEILILADLHSADQLKTQAVDFINYHASDVLETSGWKSMVVSHPHLVAEAYRSLASAQCPFLGPPRKRLKQS [F133L], the “effect of a mutation on the interaction” value is listed as “with no effect”.

A further assay covers variants of B3. To be noted: with chk1_human CHEK1, O14757. The source holds these as a separate data set.
As for MSRVPSPPPPAEMSSGPVAESWCYTQIKVVKFSYMWTINNFSFCREEMGEVIKSSTFSSGANDKLKWCLRVNPKGLDEESKDYLSLYLLLVSCPKSEVRAKCKFSILNAKGEETKAMESQRAYRFVQGKDWGFKKFIRRDFLLDEANGLLPDDKLTLFCEVSVVQDSVNISGQNTMNMVKVPECRLADELGGLWENSRFTDCCLCVAGQEFQAHKAILAARSPVFSAMFEHEMEESKKNRVEINDVEPEVFKEMMCFIYTGKAPNLDKMADDLLAAADKYALERLKVMCEDALCSNLSVENAAEILILADLHSADQLKTQAVDFINYHASDVLETSGWKSMVVSHPHLVAEAYRSLASAQCPFLGPPRKRLKQS [F102C], the “effect of a mutation on the interaction” value is listed as “with no effect”.

The values are drawn from IntAct's records for PubMed 35512704.
